# Biological target: human MUC16 (mucin 16), endogenously expressed on cells (human)
# Test: MSD electrochemiluminescence cell binding; RLU ratio OVCAR-3/SK-OV-3; Ab […]; NS = Non-Specific, ratio <2.5-fold
row,Ratio: anti-MUC16 Binding OVCAR-3/SK-OV-3,Substance
1,< 2.5,mIgG1 Isotype Control Antibody
2,< 2.5,mIgG2a Isotype Control Antibody
3,< 2.5,hIgG1 Isotype Control Antibody

# From patent US20180112001A1
